The text below walks through data of article PMC5699509.

Where two headings read alike, the source gives them in different places.

Holding throughout (assay): fluorescence quenching
The target in data set [1] is T1, RAD51 E258A (Homo sapiens, UniProt Q06609 1-339, E258A).
Data set [2] addresses T2, RAD51 WT (Homo sapiens, UniProt Q06609 1-339).
For data set [3], the target named is T3, RAD51 F86L (Homo sapiens, UniProt Q06609 1-339, F86L).
The target in data set [4] is T1, RAD51 E258A. The source holds these as a separate data set.
Data set [5] deals with T2, RAD51 WT. This is another data set of the same source.
Data set [6] deals with T3, RAD51 F86L. This is another data set of the same source.

T2 sequence (Q06609 whole entry): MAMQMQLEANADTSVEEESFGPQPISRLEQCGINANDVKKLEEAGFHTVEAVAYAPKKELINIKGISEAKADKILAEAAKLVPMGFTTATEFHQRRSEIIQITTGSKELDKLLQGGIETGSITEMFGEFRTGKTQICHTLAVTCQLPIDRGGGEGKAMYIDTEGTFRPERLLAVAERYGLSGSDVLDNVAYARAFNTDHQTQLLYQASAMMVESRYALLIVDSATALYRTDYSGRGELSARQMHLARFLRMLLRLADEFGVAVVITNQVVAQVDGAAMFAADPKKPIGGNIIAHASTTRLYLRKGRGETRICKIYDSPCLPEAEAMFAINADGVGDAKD
T1 sequence (Q06609 whole entry E258A): as the sequence (Q06609 whole entry) above, with E258A counted along it
T3 sequence (Q06609 whole entry F86L): as the sequence (Q06609 whole entry) above, with F86L counted along it

B1: oligo 9/10 dsDNA (AF546) (dsDNA)
DNA 1: AAAAAAAAAAAAAAAAAAAAAAAAA
DNA 2: TTTTTTTTTTTTTTTTTTTTTTTTT
Regarding B1, the Kd (as a rule, the constant that tells how readily two partners part at equilibrium) stood at 2100 ± 100 nM in the data set with RAD51 E258A [1]; 800 ± 100 nM with RAD51 WT [2]; 1700 ± 100 nM in the data set with RAD51 F86L [3]; 1300 ± 100 nM in the data set with RAD51 E258A [4]; 700 ± 100 nM with RAD51 WT [5]; 1.8 ± 0.2 µM in the data set with RAD51 F86L [6].

As to AAAAAAAAAAAAAAAAAAAAAAAAA (ssDNA) [oligo 9 ssDNA (AF546 poly-dA)], the Kd in the data set with RAD51 WT [2] was determined as 1900 ± 200 nM; with RAD51 E258A [4], 3100 ± 300 nM; in the data set with RAD51 WT [5] it was 600 ± 100 nM; in the data set with RAD51 F86L [6], 4.9 ± 0.4 µM.
